{"source": "paper PMC9499506", "about": "“TNF-α and IL-1β Modulate Blood-Brain Barrier Permeability and Decrease Amyloid-β Peptide Efflux in a Human Blood-Brain Barrier Model” (International Journal of Molecular Sciences, 2022)", "key": {"BLECs [1]": {"test_system": "BLECs", "conditions": "MTT assay; 10% (v/v) DMSO, 24 h; positive control of cell toxicity; mean of at least three independent experiments in triplicate", "description": "An MTT assay was performed as a preliminary test to determine their effect on BLEC viability and to validate the chosen concentrations. Dimethyl sulfoxide (DMSO) at 10% (v/v) was used as a positive control of cell toxicity.\nAfter 6 days of coculture, TNF-α or IL-1β were added to the basolateral compartment (brain side) at 10 ng·mL^−1 for 24 h, at 37 °C and 5% CO2, to mimic CNS inflammation condition. Each condition was studied in triplicate.\nThe standard MTT [3-(4,5-dimethylthiazol-2-yl)-2,5-diphenyltetrazolium bromide] assay (AR1156, Boster Biological Technology, Pleasanton, CA, USA) was performed to determine BLEC viability. Briefly, after coculture treatments, culture medium was removed and replaced with worm Ringer-Hepes (RH; 150 mM NaCl, 5.2 mM KCl, 2.2 mM CaCl2, 0.2 mM MgCl2–6H2O, 6 mM NaHCO3, 5 mM HEPES, 2.8 mM glucose; pH: 7.4) in basolateral compartment and with MTT solution (0.5 mg·mL^−1) in RH at in the opposite compartment for 3 h at 37 °C and 5% CO2. […] Aliquot was sampled in 96-well plate and the optical density (OD) was measured with a microplate reader (Synergy H1, BioTek. Colmar, France) at the wavelength of 570 and 630 nm. The percentage of relative cell viability compared to the control condition was subsequently determined using the following formula: % relative cell viability = ((OD570 − OD630) condition)/((OD570 – OD630)control) × 100."}, "BLECs [2]": {"test_system": "BLECs", "experiment": "Aβ1–40Cy5 peptide / FITC-inulin transport across untreated BLECs (Papp, transcytosis quotient)", "assay_type": "in vitro ADME, human", "conditions": "30 min, 37 °C, mean ± SEM; for apparent permeability coefficient (Papp), efflux transport, control: untreated human BLECs on Transwell insert, basolateral-to-apical, 10 nM Aβ1–40Cy5 with 1 µM FITC-inulin in RH-HSA 0.1% pH 7.4, slight agitation, fluorescence, at least three independent experiments in triplicate", "description": "As TNF-α and IL-1β modulated the protein expression levels of LRP1, BCRP and PICALM (Figure 4), we investigated the effect of these cytokines on the transport of Aβ peptide across the BBB. After 24 h of treatment with proinflammatory cytokines, the apical-to-basolateral (influx) and basolateral-to-apical (efflux) Aβ1–40Cy5 peptide transports across the BLECs were assessed in the presence of FITC-inulin. The Aβ1–40 peptide was used in all experiments, as it is the most abundant amyloid peptide found on cerebral blood vessels. FITC-inulin was used to determine the nonspecific transcytosis quotient (Figure 5A). Indeed, unlike Aβ peptide, FITC-inulin is not actively cleared at the BBB and acts as a reference marker of paracellular permeability, thus as previously reported.\n(§1) As described previously, the human in vitro blood-brain barrier (BBB) model based on the acquisition of the human brain-like endothelial cell (BLEC) phenotype was used for this study. This BBB model corresponds to a coculture of primary human endothelial cells (ECs) derived from CD34^+ cord blood hematopoietic stem cells and bovine brain pericytes, isolated as described by Vandenhaute and colleagues. Informed consent was obtained from all infants’ parents for the umbilical cord blood collection and use. Procedures for isolation of cells from umbilical cord were approved by the French Ministry of Higher Education and Research (CODECOH DC2011-1321, approved 31 January 2013) and by the local investigational review board (Béthune Maternity Hospital, Beuvry, France). Briefly, 8 × 10^4 ECs at passage 6 were seeded onto Matrigel-coated (BD Biosciences, San Jose, CA, USA) insert (pore size 0.4 μm, Costar Transwell inserts, Corning Inc., Corning, New York, NY, USA. Endothelial cells were cocultured with bovine brain pericytes at passage 10 in a 12-well plate gelatin-coated with ECM-5. Every two days, ECM-5 was changed until experiment. However, a minimum of 5 days of culture were required for the ECs to develop the BLEC phenotype and a maximum of 21 days of BLEC phenotype stability has been determined. Once BLEC phenotype was acquired, these cells delimited two compartments, one mimicking the blood side (corresponding to the apical compartment) and the other the brain side (corresponding to the basolateral side). […]\nAfter proinflammatory cytokine treatments, the influx (apical-to-basolateral) and the efflux (basolateral-to-apical) transport of Aβ1–40 peptides across BLECs were investigated as previously described. […] The BBB integrity was determined by measuring the endothelial permeability of a radioactive integrity marker, ^14C-sucrose, using the same method of calculation as described in Section 4.4. […]"}, "BLEC monolayer": {"test_system": "BLEC monolayer", "experiment": "Endothelial permeability coefficient of lucifer yellow across untreated BLEC monolayer", "assay_type": "in vitro ADME, human", "conditions": "mean ± SEM", "text": "as §1, with “Procedures for isolation of cells from umbilical cord were approved by the French Ministry of Higher Education and Research (CODECOH DC2011-1321, approved 31 January 2013) and by the local investigational review board (Béthune Maternity Hospital, Beuvry, France).” left out\nThe BLEC monolayer integrity was evaluated after each treatment using the method described by Dehouck and colleagues. […]"}}, "data": [{"compound": "C[S+](C)[O-]", "note": "[DMSO, Dimethyl sulfoxide, reference compound]", "values": [{"measurement": "decrease of BLEC viability compared to control", "setting": "BLECs [1]", "value": 26.5, "unit": "%"}]}, {"compound": "human amyloid-β peptide (1–40)-Cy5 [Aβ1–40Cy5]", "values": [{"measurement": "transcytosis quotient of Aβ1–40Cy5, efflux direction, control", "setting": "BLECs [2]; efflux Aβ1–40Cy5 Papp / efflux FITC-inulin Papp, untreated BLECs", "value": "3.22 ± 0.13"}, {"measurement": "transcytosis quotient of Aβ1–40Cy5, influx direction, control", "setting": "BLECs [2]; influx Aβ1–40Cy5 Papp / influx FITC-inulin Papp, untreated BLECs", "value": "3.10 ± 0.25"}, {"measurement": "apparent permeability coefficient (Papp), efflux transport, control", "setting": "BLECs [2]", "value": "4.47 ± 0.16 × 10^−6 cm·min^−1"}]}, {"compound": "Lucifer Yellow CH dilithium salt [LY]", "values": [{"measurement": "transcellular PeLY, control BLECs", "setting": "BLEC monolayer; PeLY at 37 °C minus PeLY at 4 °C", "value": "0.36 ± 0.02 × 10^−3 cm·min^−1"}, {"measurement": "paracellular PeLY, control BLECs", "setting": "BLEC monolayer; as total PeLY but at 4 °C (transcellular pathway inhibited), 50 µM LY in RH buffer, fluorescence", "value": "0.18 ± 0.01 × 10^−3 cm·min^−1"}]}, {"compound": "FITC-inulin", "values": [{"measurement": "apparent permeability coefficient (Papp), efflux transport, control", "setting": "BLECs [2]", "value": "1.41 ± 0.03 × 10^−6 cm·min^−1"}]}]}
